Source: PMC5389812, “Rv3634c from Mycobacterium tuberculosis H37Rv encodes an enzyme with UDP-Gal/Glc and UDP-GalNAc 4-epimerase activities” (PLoS ONE, 2017)

Target: the molecule itself
Test: SEC; Superdex 200 16/600 GL column, FPLC buffer (20 mM Tris pH 8.0, 100 mM NaCl); calibrated with conalbumin, ovalbumin, carbonic anhydrase, ribonuclease A and aprotinin; molecular weight from Kav

Protein | stoichiometry N
His-tagged Rv3634c (H3634) S121A mutant (enzyme, not shown: His6, N-terminal, kept) MRALVTGAAGFIGSTLVDRLLADGHSVVGLDNFATGRATNLEHLADNSAHVFVEADIVTADLHAILEQHRPEVVFHLAAQIDVRRSVADPQFDAAVNVIGTVRLAEAARQTGVRKIVHTSAGGSIYGTPPEYPTPETAPTDPASPYAAGKVAGEIYLNTFRHLYGLDCSHIAPANVYGPRQDPHGEAGVVAIFAQALLSGKPTRVFGDGTNTRDYVFVDDVVDAFVRVSADVGGGLRFNIGTGKETSDRQLHSAVAAAVGGPDDPEFHPPRLGDLKRSCLDIGLAERVLGWRPQIELADGVRRTVEYFRHKHTD | 2
His-tagged Rv3634c (H3634) K150R mutant (enzyme, not shown: His6, N-terminal, kept) MRALVTGAAGFIGSTLVDRLLADGHSVVGLDNFATGRATNLEHLADNSAHVFVEADIVTADLHAILEQHRPEVVFHLAAQIDVRRSVADPQFDAAVNVIGTVRLAEAARQTGVRKIVHTSSGGSIYGTPPEYPTPETAPTDPASPYAAGRVAGEIYLNTFRHLYGLDCSHIAPANVYGPRQDPHGEAGVVAIFAQALLSGKPTRVFGDGTNTRDYVFVDDVVDAFVRVSADVGGGLRFNIGTGKETSDRQLHSAVAAAVGGPDDPEFHPPRLGDLKRSCLDIGLAERVLGWRPQIELADGVRRTVEYFRHKHTD | 2
His-tagged Rv3634c (H3634) Y146F mutant (enzyme, not shown: His6, N-terminal, kept) MRALVTGAAGFIGSTLVDRLLADGHSVVGLDNFATGRATNLEHLADNSAHVFVEADIVTADLHAILEQHRPEVVFHLAAQIDVRRSVADPQFDAAVNVIGTVRLAEAARQTGVRKIVHTSSGGSIYGTPPEYPTPETAPTDPASPFAAGKVAGEIYLNTFRHLYGLDCSHIAPANVYGPRQDPHGEAGVVAIFAQALLSGKPTRVFGDGTNTRDYVFVDDVVDAFVRVSADVGGGLRFNIGTGKETSDRQLHSAVAAAVGGPDDPEFHPPRLGDLKRSCLDIGLAERVLGWRPQIELADGVRRTVEYFRHKHTD | 2
